In article PMC5473807, “Distribution and kinetics of the Kv1.3-blocking peptide HsTX1[R14A] in experimental rats” (Scientific Reports, 2017):
Read-outs that look alike come from different tables or passages of the source.

Test: In vivo biodistribution by organ and tissue extraction
Design: species or system male Wistar rats
Settings: for SUV at 5 min / tissue uptake dose at 5 min / SUV at 1 h / tissue uptake dose at 1 h / SUV at 4 h / tissue uptake dose at 4 h / SUV at 24 h / tissue uptake dose at 24 h / SUV at 48 h / tissue uptake dose at 48 h: male, Wistar, total radioactivity, rat, mean ± SD; for SUV at 5 min / tissue uptake dose at 5 min: 5 min p.i.; for SUV at 1 h / tissue uptake dose at 1 h: 60 min p.i.; for SUV at 4 h / tissue uptake dose at 4 h: 240 min p.i.; for SUV at 24 h / tissue uptake dose at 24 h: 1440 min p.i.; for SUV at 48 h / tissue uptake dose at 48 h: 2880 min p.i.
Protocol: The present study includes data obtained from a total of 50 animals. Four animals (body weight 227 ± 10 g) for each time point were injected intravenously into a tail vein or subcutaneously with approximately 0.3 MBq ([…]) [^64Cu]Cu-NOTA-HsTX1[R14A] conjugate in 0.5 mL electrolyte solution E-153 (Serumwerk Bernburg, Germany). Animals were euthanised at 5, 60, 240, 1440 and 2880 min post-injection. Blood and the major organs were collected, weighed, and counted in a cross-calibrated γ-counter (Isomed 1000, Isomed GmbH, Dresden) and Wallac WIZARD Automatic Gamma Counter (PerkinElmer, Germany). The radioactivity of the tissue samples was decay-corrected and calibrated by comparing the counts in tissue with the counts in aliquots of the injected radiotracer that had been measured in the γ-counter at the same time. The activity in the selected organs was expressed as percent-injected dose per organ (% ID) and the activity concentration in tissues and organs as standardised uptake value (SUV). Values are quoted as mean ± standard error of mean (SEM) for each group of four animals.

[1] = Harderian gland, iv, 0.3 MBq, i.v., n=4, read-out: Harderian gl. SUV
[2] = Harderian gland, iv, 0.3 MBq, i.v., n=4, read-out: Harderian gl. activity amount
[3] = Harderian gland, iv, 0.3 MBq, i.v., n=8, read-out: Harderian gl. SUV
[4] = Harderian gland, iv, 0.3 MBq, i.v., n=8, read-out: Harderian gl. activity amount
[5] = Harderian gland, sc, 0.3 MBq, s.c., n=4, read-out: Harderian gl. SUV
[6] = Harderian gland, sc, 0.3 MBq, s.c., n=4, read-out: Harderian gl. activity amount
[7] = adrenals, iv, 0.3 MBq, i.v., n=4, read-out: Adrenals SUV
[8] = adrenals, iv, 0.3 MBq, i.v., n=4, read-out: Adrenals activity amount
[9] = adrenals, iv, 0.3 MBq, i.v., n=8, read-out: Adrenals SUV
[10] = adrenals, iv, 0.3 MBq, i.v., n=8, read-out: Adrenals activity amount
[11] = adrenals, sc, 0.3 MBq, s.c., n=4, read-out: Adrenals SUV
[12] = adrenals, sc, 0.3 MBq, s.c., n=4, read-out: Adrenals activity amount
[13] = blood, sc, s.c., n=4, read-out: Blood SUV
[14] = brain, iv, 0.3 MBq, i.v., n=4, read-out: Brain SUV
[15] = brain, iv, 0.3 MBq, i.v., n=4, read-out: Brain activity amount
[16] = brain, iv, 0.3 MBq, i.v., n=8, read-out: Brain SUV
[17] = brain, iv, 0.3 MBq, i.v., n=8, read-out: Brain activity amount
[18] = brain, sc, 0.3 MBq, s.c., n=4, read-out: Brain SUV
[19] = brain, sc, 0.3 MBq, s.c., n=4, read-out: Brain activity amount
[20] = carcass, iv, 0.3 MBq, i.v., n=4, read-out: Carcass activity amount
[21] = carcass, iv, 0.3 MBq, i.v., n=8, read-out: Carcass activity amount
[22] = carcass, sc, 0.3 MBq, s.c., n=4, read-out: Carcass activity amount
[23] = femur, iv, 0.3 MBq, i.v., n=4, read-out: Femur SUV
[24] = femur, iv, 0.3 MBq, i.v., n=4, read-out: Femur activity amount
[25] = femur, iv, 0.3 MBq, i.v., n=8, read-out: Femur SUV
[26] = femur, iv, 0.3 MBq, i.v., n=8, read-out: Femur activity amount

## CSCC[C@@H]1NC(=O)[C@@H]2CSSC[C@H](NC(=O)[C@H](CO)NC(=O)[C@H](C)NC(=O)COCCOCCNC(=O)CN3CCN(CC(=O)O)CCN(CC(=O)O)CC3)C(=O)N[C@@H](CCCNC(=N)N)C(=O)N[C@@H]([C@@H](C)O)C(=O)N3CCC[C@H]3C(=O)N[C@@H](CCCCN)C(=O)N[C@@H](CC(=O)O)C(=O)N[C@H]3CSSC[C@H](NC(=O)[C@H](CCCCN)NC(=O)[C@H](CCCNC(=N)N)NC(=O)[C@H](CC(N)=O)NC1=O)C(=O)N[C@@H](CCCCN)C(=O)N[C@H]1CSSC[C@H](NC(=O)[C@@H]4CCCN4C(=O)[C@H](CC(=O)O)NC(=O)[C@H](C)NC3=O)C(=O)N[C@@H](C)C(=O)N[C@@H](CCCCN)C(=O)N[C@@H](CCC(=O)O)C(=O)N[C@@H]([C@@H](C)O)C(=O)NCC(=O)N[C@@H](CSSC[C@@H](C(N)=O)NC(=O)[C@H](CCCNC(=N)N)NC(=O)[C@H](CC(N)=O)NC1=O)C(=O)N1CCC[C@H]1C(=O)N[C@@H](Cc1ccc(O)cc1)C(=O)NCC(=O)N[C@@H](CCCCN)C(=O)N2 [[^64Cu]Cu-NOTA-HsTX1[R14A], metal not drawn]
i.v.
  biological half-life of the total activity in the rat body: 45.4 h
[1]
  SUV at 5 min: 0.82 ± 0.12 SUV
  SUV at 4 h: 0.23 ± 0.01 SUV
  SUV at 48 h: 0.48 ± 0.05 SUV
[2]
  tissue uptake dose at 5 min: 0.1 ± 0.02 %ID
  tissue uptake dose at 4 h: 0.03 %ID
  tissue uptake dose at 48 h: 0.07 %ID
[3]
  SUV at 1 h: 0.3 ± 0.05 SUV
  SUV at 24 h: 0.56 ± 0.1 SUV
[4]
  tissue uptake dose at 1 h: 0.04 %ID
  tissue uptake dose at 24 h: 0.08 ± 0.01 %ID
[5]
  SUV at 1 h: 0.32 ± 0.01 SUV
  SUV at 4 h: 0.21 ± 0.01 SUV
  SUV at 24 h: 0.46 ± 0.01 SUV
  SUV at 48 h: 0.44 ± 0.02 SUV
[6]
  tissue uptake dose at 1 h: 0.04 %ID
  tissue uptake dose at 4 h: 0.03 %ID
  tissue uptake dose at 24 h: 0.08 ± 0.01 %ID
  tissue uptake dose at 48 h: 0.06 ± 0.01 %ID
[7]
  SUV at 5 min: 1.26 ± 0.48 SUV
  SUV at 4 h: 0.39 ± 0.05 SUV
  SUV at 48 h: 0.71 ± 0.04 SUV
[8]
  tissue uptake dose at 5 min: 0.03 %ID
  tissue uptake dose at 4 h: 0.01 %ID
  tissue uptake dose at 48 h: 0.02 %ID
[9]
  SUV at 1 h: 0.65 ± 0.37 SUV
  SUV at 24 h: 0.86 ± 0.11 SUV
[10]
  tissue uptake dose at 1 h: 0.01 %ID
  tissue uptake dose at 24 h: 0.02 %ID
[11]
  SUV at 1 h: 0.4 ± 0.08 SUV
  SUV at 4 h: 0.4 ± 0.02 SUV
  SUV at 24 h: 0.73 ± 0.1 SUV
  SUV at 48 h: 0.55 ± 0.33 SUV
[12]
  tissue uptake dose at 1 h: 0.01 %ID
  tissue uptake dose at 4 h: 0.01 %ID
  tissue uptake dose at 24 h: 0.02 %ID
  tissue uptake dose at 48 h: 0.02 ± 0.01 %ID
blood, iv, 0.3 MBq, i.v., n=4, read-out: Blood SUV
  SUV at 5 min: 1.09 ± 0.62 SUV
blood, iv, 0.3 MBq, i.v., n=8, read-out: Blood SUV
  SUV at 1 h: 0.7 ± 0.23 SUV
[13]
  SUV at 4 h: 0.47 ± 0.21 SUV
  SUV at 24 h: 0.44 ± 0.04 SUV
  SUV at 48 h: 0.3 ± 0.01 SUV
[14]
  SUV at 5 min: 0.07 SUV
  SUV at 4 h: 0.03 SUV
  SUV at 48 h: 0.07 SUV
[15]
  tissue uptake dose at 5 min: 0.05 %ID
  tissue uptake dose at 4 h: 0.05 ± 0.01 %ID
  tissue uptake dose at 48 h: 0.1 %ID
[16]
  SUV at 1 h: 0.05 ± 0.01 SUV
  SUV at 24 h: 0.08 ± 0.01 SUV
[17]
  tissue uptake dose at 1 h: 0.05 ± 0.03 %ID
  tissue uptake dose at 24 h: 0.08 ± 0.03 %ID
[18]
  SUV at 1 h: 0.04 SUV
  SUV at 4 h: 0.03 SUV
  SUV at 24 h: 0.06 SUV
  SUV at 48 h: 0.07 SUV
[19]
  tissue uptake dose at 1 h: 0.06 ± 0.01 %ID
  tissue uptake dose at 4 h: 0.05 %ID
  tissue uptake dose at 24 h: 0.1 %ID
  tissue uptake dose at 48 h: 0.09 %ID
[20]
  tissue uptake dose at 5 min: 63.4 ± 6.19 %ID
  tissue uptake dose at 4 h: 20.1 ± 1.68 %ID
  tissue uptake dose at 48 h: 21.6 ± 1.04 %ID
[21]
  tissue uptake dose at 1 h: 28.1 ± 1.55 %ID
  tissue uptake dose at 24 h: 28.4 ± 3.49 %ID
[22]
  tissue uptake dose at 1 h: 32.9 ± 2.62 %ID
  tissue uptake dose at 4 h: 20.1 ± 1.28 %ID
  tissue uptake dose at 24 h: 28.5 ± 1.49 %ID
  tissue uptake dose at 48 h: 19.7 ± 2.74 %ID
[23]
  SUV at 5 min: 3.04 ± 2.13 SUV
  SUV at 4 h: 0.87 ± 0.04 SUV
[24]
  tissue uptake dose at 5 min: 1.32 ± 0.89 %ID
  tissue uptake dose at 4 h: 0.55 ± 0.03 %ID
[25]
  SUV at 1 h: 1.58 ± 0.58 SUV
  SUV at 24 h: 0.54 ± 0.06 SUV
[26]
  tissue uptake dose at 1 h: 0.8 ± 0.21 %ID
  tissue uptake dose at 24 h: 0.3 ± 0.06 %ID
